Assays:
purified protein [1] = substrate: O=C(O)c1cc(=O)[nH]c(=O)n1[C@@H]1O[C@H](COP(=O)(O)O)[C@@H](O)[C@H]1O; assay: purified protein; assay type: biochemical, Methanothermobacter thermautotrophicus; details: 25 °C, pH 7.1, 10 mM MOPS, I = 0.1 (NaCl)
purified protein [2] = substrate: O=C(O)c1cc(=O)[nH]c(=O)n1[C@@H]1O[C@H](COP(=O)(O)O)[C@@H](O)[C@H]1O; assay: purified protein; assay type: biochemical, Saccharomyces cerevisiae; details: 25 °C, pH 7.1, 10 mM MOPS, I = 0.1 (NaCl)

B1: MtOMPDC (wildtype OMPDC from Methanothermobacter thermautotrophicus) (Methanothermobacter thermautotrophicus str. Delta H) (protein)
chain: MRSRRVDVMDVMNRLILAMDLMNRDDALRVTGEVREYIDTVKIGYPLVLSEGMDIIAEFRKRFGCRIIADFKVADIPETNEKICRATFKAGADAIIVHGFRGADSVRACLNVAEEMGREVFLLTEMSHPGAEMFIQGAADEIARMGVDLGVKNYVGPSTRPERLSRLREIIGQDSFLISPGVGAQGGDPGETLRFADAIIVGRSIYLADNPAAAAAGIIESIKDLLNP
**Q.** With B1 as the protein, how does the Km (purified protein [1]) read?
**A.** Its Km is 1.5 ± 0.2 µM.

**Q.** And the kcat (purified protein [1])?
**A.** Its kcat is 4.7 ± 0.3 s⁻¹.

**Q.** What about the kcat/Km (purified protein [1]) of the same protein?
**A.** Its kcat/Km is 3.1e+06 ± 300000 M⁻¹ s⁻¹.

B2: ScOMPDC (C155S mutant OMPDC from Saccharomyces cerevisiae) (Saccharomyces cerevisiae S288C; C155S) (protein)
chain: MSKATYKERAATHPSPVAAKLFNIMHEKQTNLCASLDVRTTKELLELVEALGPKICLLKTHVDILTDFSMEGTVKPLKALSAKYNFLLFEDRKFADIGNTVKLQYSAGVYRIAEWADITNAHGVVGPGIVSGLKQAAEEVTKEPRGLLMLAELSSKGSLATGEYTKGTVDIAKSDKDFVIGFIAQRDMGGRDEGYDWLIMTPGVGLDDKGDALGQQYRTVDDVVSTGSDIIIVGRGLFAKGRDAKVEGERYRKAGWEAYLRRCGQQN
**Q.** How did the Km (purified protein [2]) turn out when B2 was run?
**A.** The Km was 1.4 ± 0.2 µM.

**Q.** What about the kcat (purified protein [2]) of the same protein?
**A.** The kcat was 15 ± 1 s⁻¹.

**Q.** What about the kcat/Km (purified protein [2]) of the same protein?
**A.** The kcat/Km was 1.1e+07 ± 1e+06 M⁻¹ s⁻¹.

— PMC2754381
